Experimental data from US20110319287A1, “MODULATOR ASSAY” (ADDEX PHARMA S.A., priority 2009, published 2011).
Each block holds one molecule with its values, some of them ahead of it.

Legend:
[1] = system: TNF-induced TRADD relocalisation in HeLa TRADD DR3 cells; assay: TNF-induced TRADD-EYFP relocation in HeLa TRADD DR3 recombinant cells (Example 3); assay type: cell-based, human; details: in the presence of 100 ng/ml TNF; FIG. 19
From the text: (§1) In a further example of the present invention, a method involving the TL1A-activated DR3 receptor was developed. The TRADD-EYFP HeLa clones comprising the TRADD-EYFP reporter molecule transfected into HeLa cells as described in Example 1 was employed. The DR3 receptor (cDNA sequence shown in SEQ ID NO: 19 and encoded protein shown in SEQ ID NO: 20) which had been cloned in the vector pCR3.1 (Invitrogen) was transferred into the vector pTre2 (Clontech) using the Gateway® cloning technique with the primers Attb1 Forward primer (SEQ ID NO: 21) and Attb2 Reverse primer (SEQ ID NO: 22), yielding a pTRE2-DR3 expression vector (SEQ ID NO: 23). This expression vector was then transfected into the TRADD-EYFP HeLa clones to produce a double transformants designated HeLa TRADD DR3.
(§2) Monitoring and quantification of the TRADD-EYFP reporter molecule was conducted as described in Examples 1 and 2 above. […] The data of FIG. 17 are depicted graphically in FIG. 18.

[2] = molecular target: T1, TL1A-activated DR3 receptor (Homo sapiens, UniProt Q93038); assay: TL1A-induced TRADD-EYFP relocation in HeLa TRADD DR3 recombinant cells (Example 3); assay type: cell-based; details: in the presence of 300 ng/ml TL1A; FIG. 17
T1 construct: (N); expressed in transfected cells; host or cells: HeLa Tet-On cells stably expressing TRADD-EYFP, transfected with pTRE2-DR3 (HeLa TRADD DR3)
T1 sequence (Q93038 with tags, fused parts or gaps P167L): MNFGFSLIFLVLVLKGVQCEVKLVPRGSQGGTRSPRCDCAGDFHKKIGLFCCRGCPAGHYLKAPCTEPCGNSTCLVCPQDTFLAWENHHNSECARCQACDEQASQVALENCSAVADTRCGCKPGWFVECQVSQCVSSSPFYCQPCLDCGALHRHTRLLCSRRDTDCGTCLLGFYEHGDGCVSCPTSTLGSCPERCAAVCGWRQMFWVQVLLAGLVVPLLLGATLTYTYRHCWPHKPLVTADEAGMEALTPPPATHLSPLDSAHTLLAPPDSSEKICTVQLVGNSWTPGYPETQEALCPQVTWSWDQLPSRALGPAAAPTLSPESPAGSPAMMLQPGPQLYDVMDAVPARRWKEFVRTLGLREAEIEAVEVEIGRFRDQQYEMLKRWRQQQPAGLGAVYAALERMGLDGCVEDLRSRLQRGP
From the text: as §1, §2

[3] = molecular target: T2, TL1A-activated DR3 receptor (Homo sapiens, UniProt Q93038, P167L); assay: as above; assay type: cell-based; details: in the presence of 300 ng/ml TL1A; FIG. 17
T2 construct: (N); expressed in transfected cells; host or cells: HeLa Tet-On cells stably expressing TRADD-EYFP, transfected with pTRE2-DR3 (HeLa TRADD DR3)
T2 sequence (Q93038 with tags, fused parts or gaps P167L): T1 sequence (Q93038 with tags, fused parts or gaps P167L)
From the text: as §1, §2

[4] = system: TNF-induced relocalisation of EYFP-TRADD (TNFR1-containing complex I) in HeLa cells; assay: TNF-mediated relocation of fluorescently tagged TRADD in Clone #49-E2 HeLa cells, 384-well (Example 2); assay type: cell-based, human; details: added instead of TNF; FIG. 12
Method: The following experimental procedure to detect the reporter molecule in the presence of absence of a “test” compound (or molecule, as described below) was conducted.
On day 1, 10^3 cells per well were plated in thin glass bottom 384 wells plate in 50 μl of culture media (DMEM glutamax, 10% FBS, peni-strep, geneticin, hygromycin). The cells were incubated overnight at 37° C. On day 2, media was aspirated, and 35 μl of warm DMEM, 2, 5% FBS, HEPES 10 mM added. Then, 15 μl of 4× the test compound diluted in DMEM, 2, 5% FBS, HEPES 10 mM was added to cells using a Biomek laboratory automation workstation (Beckman-Coulter). This was incubated at room temperature for 1.5 min. […] The cells were washed three times with PBS 1× using an Embla 384 Cell Washer (Molecular Devices). Cells were fixed by adding PBS 1×, 5% PFA+Hoescht 0.2 μg/ml using a Multidrop 384 dispensor (Thermo Scientific; 30 μl/well) followed by an incubation for 20 min at room temperature in the dark. After a further three washes of the cells with PBS 1× using the Embla 384 Cell Washer, 60 μl per well of PBS 1×, 1% peni-strep was added. The plate was covered with a transparent sealing film. Readings were then taken on the Scientific Cellomics ArrayScan HCS Reader automated microscope system as used in Example 1.

IC50 on TL1A-induced relocalisation [2]: 1.41 µg/mL
dose-dependent inhibition of TL1A-induced relocalisation [3]: dose-dependently inhibited
B1: DcR3: DR3 inhibitor; Recombinant Human DcR3/TNFRSF6B/Fc Chimera from R&D Systems (protein)
chain: VAETPTYPWRDAETGERLVCAQCPPGTFVQRPCRRDSPTTCGPCPPRHYTQFWNYLERCRYCNVLCGEREEEARACHATHNRACRCRTGFFAHAGFCLEHASCPPGAGVIAPGTPSQNTQCQPCPPGTFSASSSSSEQCQPHRNCTALGLALNVPGSSSHDTLCTSCTGFPLSTRVPGAEECERAVIDFVAFQDISIKRLQRLLQALEAPEGWGPTPRAGRAALQLKLRRRLTELLGAQDGALLVRLLQALRVARMPGLERSVRERFLPVH
modifications: left off: a dimerising Fc or GST
notes: Recombinant Human DcR3/TNFRSF6B/Fc Chimera from R&D Systems
dose-dependent inhibition of TNF-induced relocalisation [1]: not

B2: CD40L: Fc [human]: CD40L [human] from Apotech Corporation (protein)
chain: GDQNPQIAAHVISEASSKTTSVLQWAEKGYYTMSNNLVTLENGKQLTVKRQGLYYIYAQVTFCSNREASSQAPFIASLCLKSPGRFERILLRAANTHSSAKPCGQQSIHLGGVFELQPGASVFVNVTDPSQVSHGTGFTSFGLLKL
modifications: left off: a dimerising Fc or GST
notes: Fc [human]: CD40L [human] from Apotech Corporation
selectivity: relocalisation of the reporter molecule EYFP-TRADD effected by other compounds or molecules [4]: not effected
